In paper PMC5969255:

Biological target: MnSOD-3[Q142H], site-directed mutant of the manganese superoxide dismutase SOD-3 of C. elegans (C. elegans) (UniProt P41977)
Test: crystal structure

Question: With “MnSOD-3[Q142H], site-directed mutant of the manganese superoxide dismutase SOD-3 of C. elegans (from UniProt P41977 25-218) (enzyme)” as the substance, how does the stoichiometry N read?
Answer: 4
